In patent publication US20250297216A1, “METHOD FOR PRODUCING MILK LIKE PRODUCTS” (SOCIETE DES PRODUITS NESTLE S.A., priority 2021, published 2025):

Test system: iPSCs derived mammary gland organoids
Assay: Flow cytometry quantification of mammary gland progenitor markers in 3D iPSC differentiation (42-day and shortened 31-day protocols)
Format: cell-based, human
Settings: 20 ng/ml BMP4, 1 μM RA, single or combination, 42 days and 31 days protocols, compared to control condition
Source text: Scheme summarizing different procedures for the generation of mammary gland progenitors in 42 days (a), using bone morphogenetic protein 4 (BMP4) (b), retinoic acid (RA) (c), combinations of BMP4 and RA (d) and their combination in shortened time-course (31 days) (e). The red boxes indicate the period of addition of BMP4 and/or RA.

B1: BMP4: bone morphogenetic protein 4, growth factor added to the culture medium (protein, UniProt P12644 293-408, looked up)
Bone morphogenetic protein 4: SPKHHSQRARKKNKNCRRHSLYVDFSDVGWNDWIVAPPGYQAFYCHGDCPFPLADHLNSTNHAIVQTLVNSVNSSIPKACCVPTELSAISMLYLDEYDKVVLKNYQEMVVEGCGCR
expression of mammary gland progenitor markers (EpCAM, CD49f, MUC1, GATA3): can induce the expression of mammary gland progenitor markers
